The record followed here is FireProtDB (doi:10.1073/pnas.88.5.1706).

The conditions of this data set: Enterobacteria phage fd; pH 7; 25 °C; GdnHCl; CD; MOPS 50 mM; NaCl 100 mM; reversible: yes; whole UniProt chain shown.

B1: DNA-Binding protein G5P wild type, P69542 (protein)
chain: MIKVEIKPSQAQFTTRSGVSRQGKPYSLNEQLCYVDLGNEYPVLVKITLDEGQPAYAPGLYTVHLSSFKVGQFGSLMIDRLRLVPAK
Consider B1, for which the denaturant m value was 3.6 kcal/mol/M, the “denaturant midpoint (higher = more stable)” value stood at 2.61 M and the unfolding free energy is 9 kcal/mol.
